The record followed here is patent publication US20220064275A1 (SCHOLAR ROCK, published 2022).

B1: Ab6 Fab (Fab, V domains shown)
VH: EVQLVESGGGLVQPGGSLRLSCTASGFTFSSFSMDWVRQAPGKGLEWVSYISPSADTIYYADSVKGRFTISRDNAKNTLYLQMNSLRAEDTAVYYCARGVLDYGDMLMPWGQGTLVTVSS
VL: DIQMTQSPSSLSASVGDRVTITCQASQDITNYLNWYQQKPGKAPKLLIYDASNLETGVPSRFSGSGSGTDFTFTISSLQPEDIATYYCQQADNHPPWTFGGGTKVEIK
notes: Fab of Ab6
B2: Ab4 (antibody, IgG4, V domains shown)
VH: B1 VH with T23A, F32Y, D35N, P53S, A55S, D56S, T78S, M108D
VL: B1 VL
notes: also called parental lead antibody of Ab6
B3: Ab11 (antibody, IgG4, V domains shown)
VH: EVQLLESGGGLVQPGGSLRLSCAASGFTFRNYAMSWVRQAPGKGLEWVSSISGSGGATYYADSVKGRFTISRDNSKNTLYLQMNSLRAEDTAVYYCARVSSGHWDFDYWGQGTLVTVSS
VL: DIQLTQSPSSLSASVGDRVTITCRASQSISSYLNWYQQKPGKAPKLLIYAASNLQSGVPSRFSGSGSGTDFTLTISSLQPEDFATYYCQQTYTVPLTFGGGTKVEIK
B4: Ab2 (antibody, human IgG4 S228P, kappa, V domains shown)
VH: B3 VH with R30A, N31D, S35T, S50A, G56A, Y60F
VL: DIQLTQSPSSLSASVGDRVTITCRASQSISSYLNWYQQKPGKAPKLLIYAASNLQSGVPSRFSGSGSGTDFTLTISSLQPEDFATYYCQQTYTVPLTFGGGTKVEIKR
B5: Ab35 (antibody, IgG4, V domains shown)
VH: B3 VH with G102Y, H103L
VL: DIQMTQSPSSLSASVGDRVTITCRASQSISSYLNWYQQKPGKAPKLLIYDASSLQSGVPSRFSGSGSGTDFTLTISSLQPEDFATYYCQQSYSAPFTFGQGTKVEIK
B6: Ab19 (antibody, IgG4, V domains shown)
VH: QVQLVESGGGVVQPGRSLRLSCAASGFTFSSFAMTWVRQAPGKGLEWVSAISGSGAATYFADSVKGRFTISRDNSKNTLYLQMNSLRAEDTAVYYCARVSSGHWDFDEWGQGTLVTVSS
VL: B3 VL
B7: Ab20 (antibody, IgG4, V domains shown)
VH: B3 VH with R30S, N31A, S35T, S50A, A57V, F106Y
VL: B3 VL
B8: Ab12 (antibody, IgG4, V domains shown)
VH: B6 VH with S31D, F32Y, T35V, A56F, A57T, F60Y, E108Y
VL: B3 VL
B9: Ab2 Fab (Fab, V domains shown)
VH: B3 VH with R30A, N31D, S35T, S50A, G56A, Y60F
VL: B3 VL
notes: Fab of Ab2; C-terminally 6x-His tagged in the crystallography work

Residue numbers refer to the chain shown, from its start.

T3 sequence (Q14766 873-1507 limits assumed, chain 1 of 2): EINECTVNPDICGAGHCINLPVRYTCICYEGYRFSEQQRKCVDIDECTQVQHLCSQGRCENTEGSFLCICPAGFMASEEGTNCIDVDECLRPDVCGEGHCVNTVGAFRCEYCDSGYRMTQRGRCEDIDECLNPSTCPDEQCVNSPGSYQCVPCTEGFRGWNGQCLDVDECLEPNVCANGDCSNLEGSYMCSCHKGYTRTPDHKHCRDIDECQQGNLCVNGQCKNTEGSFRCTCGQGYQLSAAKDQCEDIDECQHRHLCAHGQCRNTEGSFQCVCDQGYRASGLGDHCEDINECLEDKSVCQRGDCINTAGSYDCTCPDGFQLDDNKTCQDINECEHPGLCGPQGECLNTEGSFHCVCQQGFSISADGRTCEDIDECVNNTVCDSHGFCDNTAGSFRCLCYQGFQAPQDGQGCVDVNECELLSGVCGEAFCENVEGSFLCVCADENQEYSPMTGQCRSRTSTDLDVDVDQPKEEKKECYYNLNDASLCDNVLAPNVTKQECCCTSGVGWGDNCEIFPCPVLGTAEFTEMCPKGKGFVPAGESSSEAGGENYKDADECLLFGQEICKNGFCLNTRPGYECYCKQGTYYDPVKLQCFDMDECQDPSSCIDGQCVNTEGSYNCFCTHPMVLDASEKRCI
T3 sequence (chain, as listed by the source limits assumed, chain 2 of 2): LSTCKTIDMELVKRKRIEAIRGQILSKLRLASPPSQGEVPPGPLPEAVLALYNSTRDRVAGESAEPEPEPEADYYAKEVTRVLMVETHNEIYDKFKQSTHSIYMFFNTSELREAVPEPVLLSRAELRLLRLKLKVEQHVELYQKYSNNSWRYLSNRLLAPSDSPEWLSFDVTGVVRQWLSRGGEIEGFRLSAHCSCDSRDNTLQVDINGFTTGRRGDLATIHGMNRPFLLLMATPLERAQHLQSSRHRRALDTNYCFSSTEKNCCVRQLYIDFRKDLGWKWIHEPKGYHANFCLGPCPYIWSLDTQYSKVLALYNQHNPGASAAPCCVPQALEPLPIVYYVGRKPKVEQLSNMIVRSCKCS
Sequence of hLTBP1-proTGFβ1 complex made by transfected cells (cell-based potency assay) (Q14766 347-1721, chain 1 of 2): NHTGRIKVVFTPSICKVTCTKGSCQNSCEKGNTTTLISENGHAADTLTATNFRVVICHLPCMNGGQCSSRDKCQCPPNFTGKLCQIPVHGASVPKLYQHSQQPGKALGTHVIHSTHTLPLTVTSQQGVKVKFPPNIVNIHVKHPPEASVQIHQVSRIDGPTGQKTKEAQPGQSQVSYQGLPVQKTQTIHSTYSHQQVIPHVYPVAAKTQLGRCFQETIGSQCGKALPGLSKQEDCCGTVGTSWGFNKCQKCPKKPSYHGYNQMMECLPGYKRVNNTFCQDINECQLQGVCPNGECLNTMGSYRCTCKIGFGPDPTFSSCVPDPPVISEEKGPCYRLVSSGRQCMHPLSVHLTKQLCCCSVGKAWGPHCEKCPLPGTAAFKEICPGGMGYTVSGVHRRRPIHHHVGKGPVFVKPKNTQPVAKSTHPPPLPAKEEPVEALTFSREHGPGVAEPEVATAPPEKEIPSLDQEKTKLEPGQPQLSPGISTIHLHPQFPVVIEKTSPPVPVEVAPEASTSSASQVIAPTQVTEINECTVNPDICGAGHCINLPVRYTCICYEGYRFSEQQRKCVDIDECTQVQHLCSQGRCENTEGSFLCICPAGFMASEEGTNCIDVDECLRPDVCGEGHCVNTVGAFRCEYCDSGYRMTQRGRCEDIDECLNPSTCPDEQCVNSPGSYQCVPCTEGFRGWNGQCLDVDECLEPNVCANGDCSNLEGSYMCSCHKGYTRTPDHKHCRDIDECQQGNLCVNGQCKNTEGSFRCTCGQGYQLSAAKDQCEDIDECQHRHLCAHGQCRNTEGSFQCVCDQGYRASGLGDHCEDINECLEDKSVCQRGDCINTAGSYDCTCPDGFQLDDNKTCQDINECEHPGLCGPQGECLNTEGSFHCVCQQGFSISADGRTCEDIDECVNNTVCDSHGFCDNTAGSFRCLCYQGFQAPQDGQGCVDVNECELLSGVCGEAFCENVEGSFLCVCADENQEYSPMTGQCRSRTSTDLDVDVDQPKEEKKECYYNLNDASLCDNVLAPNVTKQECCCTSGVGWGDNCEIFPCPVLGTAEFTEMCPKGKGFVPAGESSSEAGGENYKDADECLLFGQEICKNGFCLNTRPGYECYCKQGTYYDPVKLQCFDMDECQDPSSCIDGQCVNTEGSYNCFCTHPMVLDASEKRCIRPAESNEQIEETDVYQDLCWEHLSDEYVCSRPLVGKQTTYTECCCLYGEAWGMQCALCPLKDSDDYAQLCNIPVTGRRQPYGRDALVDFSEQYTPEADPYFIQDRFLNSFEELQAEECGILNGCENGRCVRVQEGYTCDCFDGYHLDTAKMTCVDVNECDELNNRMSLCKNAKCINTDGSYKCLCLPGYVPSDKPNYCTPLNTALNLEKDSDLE
Sequence of hLTBP1-proTGFβ1 complex made by transfected cells (cell-based potency assay) (P01137 30-390, chain 2 of 2): as the sequence (chain, as listed by the source limits assumed, chain 2 of 2) above

The target of the first assay is T1, human proTGFβ1 C4S (human, UniProt P01137 30-390).
T1 construct: Small latent complex without presenting molecule; the cysteine that links to presenting molecules is changed to serine; also called small latent complex proTGFβ1 C4S; latent TGFβ1
T1 sequence (P01137 other isoform, or with tags, fused parts or gaps): as the sequence (chain, as listed by the source limits assumed, chain 2 of 2) above, with C4S counted along it
The assay is described as follows: HDX-MS.
Description: In the non-deuterated experiments, each sample was mixed with sample buffer (1:15, v/v) at room temperature, then mixed with 1:1 (v/v) quenching buffer (100 mM sodium phosphate, 4 M guanidine HCl, 0.5 M TCEP) at 0° C. Quenched samples were immediately injected into a nanoACQUITY UPLC™ system with HDX technology (Waters Corp., Milford, Mass., USA) for on-column pepsin digestion. The eluent was directed into a SYNAPT® G2 HDMS mass spectrometer (Waters Corp., Milford, Mass., USA) for analysis in MSE mode. For H/D exchange experiments, each sample was mixed with labeling buffer (20 mM HEPES, 150 mM NaCl in deuterium oxide, pD 7.5) (1:15, v/v) to start the labeling reactions at 25° C. Five aliquots of each sample were labeled at various time intervals: 10 s, 1 min, 10 min, 1 h, and 2 h. At the end of each labeling time point, the reaction was quenched by adding 1:1 (v/v) quenching buffer, and the quenched samples were injected into the Waters H/DX-MS system for analysis. Between each sample run, a clean blank was run by injecting pepsin wash buffer (1.5 M guanidine HCl, 4% acetonitrile, 0.8% formic acid) into the H/DX-MS system.
In HDX-MS, the regions of an antigen that are tightly bound by an antibody are protected from proton exchange, due to protein-protein interaction, while regions that are exposed to solvent can readily undergo proton exchange. […]
As for B1, the binding result is listed as “binds”.

A further assay concerns the target hLRRC33-proTGFβ1 complex on cells (human, UniProt Q86YC3 19-692; P01137 30-390). Kind of assay: cell-based or functional assay.
Turning to B2, the “IC50, reporter cell assay of TGFβ1 activation” value (shortened to “IC50, reporter cell assay”) is 3.5 nM.
As to B3, the “IC50, reporter cell assay” value was found to be 1.27 nM.
For B4, the “IC50, reporter cell assay” value is 1.38 nM.
As for B5, the “IC50, reporter cell assay” value amounted to 5.37 nM.
Turning to B6, the “IC50, reporter cell assay” value amounted to 0.401 nM.
The same measure, in the same setting: the result for B7 reads 1.35 nM; that for B8, 2.43 nM.

The next assay addresses hLTBP3-proTGFβ1 complex made by transfected cells (cell-based potency assay) (human, UniProt Q9NS15 44-1303; P01137 30-390). Kind of assay: cell-based or functional assay.
B2: the “IC50, reporter cell assay” value is 5.65 nM.
With B3, the “IC50, reporter cell assay” value is 1.56 nM.
Same read-out and setting: the same measure for B4: 0.867 nM; for B5: 2.71 nM; for B6: 1.6 nM.
For B7, the “IC50, reporter cell assay” value was 1.18 nM.
As for B8, the “IC50, reporter cell assay” value turned out to be 1.55 nM.

The target of another assay is hGARP-proTGFβ1 complex on cells (human, UniProt Q14392 20-662; P01137 30-390). The assay is described as follows: cell-based or functional assay.
For B2, the “IC50, reporter cell assay” value was determined as 0.822 nM.
On to B3, for which the “IC50, reporter cell assay” value amounted to 0.79 nM.
The same measure, in the same setting: the result for B4 reads 0.776 nM.
As for B5, the “IC50, reporter cell assay” value is 3.71 nM.
In the case of B6, the “IC50, reporter cell assay” value was determined as 1.34 nM.
For B7, the “IC50, reporter cell assay” value worked out at 0.387 nM.
Regarding B8, the “IC50, reporter cell assay” value stood at 1.08 nM.

Another assay has as its target hLTBP1-proTGFβ1 complex made by transfected cells (cell-based potency assay) (human, UniProt Q14766 347-1721; P01137 30-390). The assay is described as follows: cell-based or functional assay.
As for B2, the “IC50, reporter cell assay” value stood at 5.22 nM.
In the case of B3, the “IC50, reporter cell assay” value is 2.95 nM.
On the same count and under the same terms, the same measure for B4: 3.39 nM; for B5: 6.25 nM; for B6: 1.66 nM.
Regarding B7, the “IC50, reporter cell assay” value worked out at 1.85 nM.
On to B8, for which the “IC50, reporter cell assay” value was 3.79 nM.

A further assay deals with T2, murine GARP-proTGFβ1 complex (mouse, UniProt G3XA59 18-628; P04202 30-390).
T2 construct: Soluble murine complex; also called mGARP-proTGFβ1
Kind of assay: BLI screen of human and murine LLCs.
Regarding B2, the binding result is reported as “binds”.

The next assay concerns the target T3, human LTBP1-proTGFβ1 complex (human, UniProt Q14766 873-1507).
T3 construct: range 873-1507; biotinylated in Octet and MSD-SET; also called hLTBP1-proTGFβ1; hLTBP1
The assay is described as follows: MSD-SET, solution equilibrium titration. Here is the method: (§1) MSD-SET assays were performed to measure affinities of the antibodies at equilibrium. Briefly, each test antibody was diluted 3-5 fold and samples were mixed with biotinylated antigen in a 48-well dish. The SET samples were equilibrated for 20-24 hours at room temperature. Meanwhile, a capture plate was coated with IgG (20 nM) and incubated overnight at 4° C. or 30 minutes at room temperature, followed by a blocking step with 5% BSA. After the capture plate was washed three times, SET samples were added and incubated for 150 seconds. The plate was washed once to remove unbound complexes. 250 ng/ml SA-Sulfotag was added then washed 3 times. 2× Read Buffer was added, and signals from the labeled bound complexes were read with the use of QuickPlex™ SQ 120 instrument.
The Kd is the free concentration of one partner at which half of the binding sites on the other are occupied at equilibrium, for simple one-to-one binding. Consider B2, for which the Kd amounted to 4.6 nM.
The molecule B3 registered a Kd of 1.2 nM.
Same read-out and setting: the result for B4 reads 0.36 nM; that for B5, 0.27 nM.
Take B6: the Kd was found to be 2.1 nM.
B7: binding was put at a Kd of 0.22 nM.
Molecule B8 gave a Kd of 0.78 nM.

Another assay concerns the target T4, human GARP-proTGFβ1 complex (human, UniProt Q14392 20-627; P01137 30-390).
T4 construct: also called hGARP-proTGFβ1; hGARP
The assay is described as follows: MSD-SET, solution equilibrium titration. Here is the method: as §1
Turning to B2, the Kd is 2.5 nM.
In the case of B3, the affinity, expressed as Kd, was 3 nM.
For B4, the Kd stood at 1.4 nM.
With B5, binding was put at a Kd of 1.1 nM.
Molecule B6 gave a Kd of 3.8 nM.
On the same count and under the same terms, the same measure for B7: 1.1 nM; for B8: 1.7 nM.

The target of the next assay is T5, human LRRC33-proTGFβ1 complex (human, UniProt Q86YC3 19-650; P01137 30-390).
T5 construct: also called hLRRC33-proTGFβ1; hLRRC33
T5 sequence (Q86YC3 other isoform, or with tags, fused parts or gaps limits assumed, chain 1 of 2): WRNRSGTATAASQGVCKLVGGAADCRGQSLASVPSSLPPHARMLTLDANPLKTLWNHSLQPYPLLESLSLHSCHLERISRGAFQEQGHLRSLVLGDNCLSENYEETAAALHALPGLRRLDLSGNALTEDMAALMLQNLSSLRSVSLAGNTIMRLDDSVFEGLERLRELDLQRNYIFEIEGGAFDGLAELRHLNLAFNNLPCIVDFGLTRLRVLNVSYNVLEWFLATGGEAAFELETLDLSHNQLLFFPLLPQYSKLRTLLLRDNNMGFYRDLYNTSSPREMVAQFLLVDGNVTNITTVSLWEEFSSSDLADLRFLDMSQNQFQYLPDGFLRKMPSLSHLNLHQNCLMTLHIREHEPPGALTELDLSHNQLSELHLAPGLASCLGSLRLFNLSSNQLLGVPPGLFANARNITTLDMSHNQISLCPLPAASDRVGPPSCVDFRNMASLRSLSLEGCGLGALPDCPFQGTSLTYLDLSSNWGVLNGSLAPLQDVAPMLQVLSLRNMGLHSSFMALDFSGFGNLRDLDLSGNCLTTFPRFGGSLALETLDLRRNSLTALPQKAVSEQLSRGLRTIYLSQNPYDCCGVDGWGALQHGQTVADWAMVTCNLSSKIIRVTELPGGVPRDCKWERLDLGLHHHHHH
T5 sequence (P01137 30-390 limits assumed, chain 2 of 2): as the sequence (chain, as listed by the source limits assumed, chain 2 of 2) above
Kind of assay: MSD-SET, solution equilibrium titration. Here is the method: as §1
The molecule B2 yielded a Kd of 2.1 nM.
Same read-out and setting: the same measure for B3: 6.3 nM; for B4: 3.2 nM; for B5: 1.1 nM.
Take B6: the Kd was found to be 5.7 nM.
Still for that read-out and setting: the result for B7 reads 1.6 nM; that for B8, 3.2 nM.

In another assay the target is T6, human LTBP3-proTGFβ1 complex (human, UniProt Q9NS15 866-1039).
T6 construct: range 866-1039; also called hLTBP3-proTGFβ1; hLTBP3
T6 sequence (Q9NS15 866-1039 limits assumed, chain 1 of 2): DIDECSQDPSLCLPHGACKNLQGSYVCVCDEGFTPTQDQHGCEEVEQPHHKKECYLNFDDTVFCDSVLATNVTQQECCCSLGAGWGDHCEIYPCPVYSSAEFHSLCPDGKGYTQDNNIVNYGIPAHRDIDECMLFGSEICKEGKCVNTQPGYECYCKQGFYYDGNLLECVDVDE
T6 sequence (chain, as listed by the source limits assumed, chain 2 of 2): as the sequence (chain, as listed by the source limits assumed, chain 2 of 2) above
Kind of assay: MSD-SET, solution equilibrium titration. Here is the method:
as §1
In turn, B2 gave a Kd of 5.5 nM.
In turn, B3 came in with a Kd of 1.2 nM.
Take B4: binding was put at a Kd of 0.171 nM.
The molecule B5 returned a Kd of 0.26 nM.
The same measure, in the same setting: the same measure for B6: 2.7 nM.
For B7, binding was put at a Kd of 0.18 nM.
The molecule B8 yielded an equilibrium dissociation constant (Kd) of 0.66 nM.

The target of the next assay is T3, human LTBP1-proTGFβ1 complex. Kind of assay: BLI (Octet). On the technique in general: BLI is a label-free optical method that tracks binding on a fibre tip over time.
In turn, B3 came in with a Kd of 0.167 nM.
On the same count and under the same terms, the result for B4 reads 0.165 nM.
B5: the Kd was determined as 0.159 nM.
The molecule B6 had a Kd of 0.189 nM.
B7 displayed a Kd of 0.192 nM.
Molecule B8 had a Kd of 0.157 nM.

For a further assay, the target named is T4, human GARP-proTGFβ1 complex. The assay is described as follows: BLI (Octet).
Consider B3, for which the Kd worked out at 0.842 nM.
Molecule B4 returned a Kd of 0.778 nM.
B5: the Kd was 7.37 nM.
Turning to B6, the affinity, expressed as Kd, was 11.2 nM.
The molecule B7 displayed a Kd of 0.884 nM.
Consider B8, for which the Kd is 7.01 nM.

The target in another assay is T5, human LRRC33-proTGFβ1 complex. The assay is described as follows: BLI (Octet).
The molecule B3 had a Kd of 0.555 nM.
On to B4, for which the affinity, expressed as Kd, was 0.508 nM.
Still for that read-out and setting: the result for B5 reads 0.545 nM.
B6 yielded a Kd of 0.692 nM.
B7: binding was characterised by a dissociation constant (Kd) of 0.545 nM.
Regarding B8, the Kd is 0.775 nM.

A further assay concerns the target T6, human LTBP3-proTGFβ1 complex. Kind of assay: BLI (Octet).
Take B3: the Kd turned out to be 0.154 nM.
On the same count and under the same terms, the result for B4 reads 0.148 nM.
On the same count and under the same terms, the result for B5 reads 0.169 nM.
As for B6, the Kd is 0.156 nM.
The molecule B7 displayed a Kd of 0.131 nM.
The molecule B8 had a Kd of 0.183 nM.

The target of a further assay is T7, human proTGFβ1 C4S/R249A (human, UniProt P01137 30-390).
T7 construct: Expressed with kifunensine and treated with endoglycosidase H; also called uncleavable human proTGFβ1 variant
Kind of assay: X-ray crystal structure of the ternary complex.
Excerpt: In this work, an uncleavable human proTGFβ1 C4S/R249A variant was used that spans residues 30-390 based on the full-length sequence of human proTGFβ1 (Uniprot ID P01137). The numbering system that will be used for the rest of this document will designate position 1 as the first amino acid residue after the removal of the signal sequence for proTGFβ isoforms. The C4S mutation renders proTGFβ1 not capable of covalent crosslinking to any known presenting molecules, e.g. LTBPs and GARP, while the R249A renders proTGFβ1 resistant to proprotein convertase/furin protease cleavage, thus maintaining proTGFβ1 in its uncleaved, proprotein form. […] The AbX Fab in this context was used as an auxiliary protein, which acts as a crystallization chaperone to increase the probability of obtaining protein crystals.
Crystallization experiments were performed at room temperature in a sitting drop format. […] X-ray diffraction data were collected at the SER-CAT beamline 22-ID at the Advanced Photon Source (APS) at the Argonne National Laboratory (ANL) using a Dectris Eiger 16M detector. The diffraction images were processed with X-ray Detector Software (XDS) in space group C2221 with an asymmetric unit containing one half of a 2:2:2 complex. The structure of the ternary complex was solved by molecular replacement using Phaser.
Take B9: the binding result is recorded as “binds”.

In the next assay the target is T1, human proTGFβ1 C4S. Kind of assay: BLI (Octet Red384), proTGFβ1 C4S coupled to AR2G sensors, dissociation at pH 7; dissociation at pH 7. How it is done: (§2) The antibodies were tested against sensor-immobilized human proTGFβ1 C4S, which contains a mutation in the prodomain to facilitate proTGFβ1 expression without disulfide linkage to a presentation molecule. Polystyrene 96-well black half area plates (Greiner Bio-One) and amine reactive second-generation (AR2G) biosensors (FortéBio) were utilized for this experiment.
(§3) AR2G biosensors were first allowed to hydrate in water offline for at least 10 minutes before the initiation of the experiment. Upon initiation of the experiment, AR2G tips were equilibrated in water for 1 minute. Then, the tips were moved into an activation solution for 5 minutes. The activation solution consists of 18 parts water, 1 part 400 mM EDC (1-Ethyl-3-[3-dimethylaminopropyl] carbodiimide hydrochloride), and 1 part 200 mM s-NHS (N-hydroxysulfosuccinimide). The activation solution is prepared immediately before use in the experiment. After tip activation, the tips were loaded for 3 minutes with a 10 ug/mL solution of human proTGFβ1 C4S in 10 mM sodium acetate buffer pH 5. After loading, the tips were quenched in ethanolamine pH 8.5 for 15 minutes. The tips were then baseline/blocked with a 20 minute incubation in 1× enhanced kinetics buffer.
As usually defined, the koff is the rate constant with which the complex falls apart. Read a low koff as slow dissociation. Molecule B4 gave a koff of 0.00278 s⁻¹.

For a further assay, the target named is T1, human proTGFβ1 C4S. The assay is described as follows: BLI (Octet Red384), proTGFβ1 C4S coupled to AR2G sensors, dissociation at pH 5; dissociation at pH 5. Here is the method:
as §2, §3
B4 gave a koff of 0.00561 s⁻¹.
